{"source": "patent US20150218534A1", "about": "“MODIFIED DNA POLYMERASE” (TOYOBO CO., LTD., priority 2012, published 2015)", "key": {"482 bp of human β-globin": {"system": "482 bp of human β-globin", "assay": "PCR amplification of 482 bp of human β-globin with dUTP in place of dTTP", "assay_type": "biochemical", "parameters": "key to Results of PCR in the presence of dUTP 481 bp: A: Amplified; B: Amplified (faint band); C: Not amplified", "settings": "for Results of PCR in the presence of dUTP 481 bp: dTTP replaced by dUTP, 35 cycles; for PCR amplification of 482 bp with dUTP: 100% dUTP instead of dTTP (FIGS. 5 to 8)", "outline": "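482 bp human β-globin amplified from 10 ng human genomic DNA with 1 U enzyme premixed with KOD antibody, using 0.2 mM dNTPs with either dTTP or dUTP, 1.5 mM MgSO4, 15 pmol primers. Cycling: 94 °C 2 min, then 35 cycles of 98 °C 10 s, 68 °C 1 min; products analysed by MultiNA DNA-1000 microchip electrophoresis.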"}, "[1]": {"system": "human genomic DNA (about 1.3 kb) with dUTP added", "assay": "Evaluation of uracil (dUTP) sensitivity by PCR with dUTP added to the reaction", "assay_type": "biochemical", "settings": "for Evaluation of dUTP resisitance on a 11-point scale: closer to 0 = stronger sensitivity to dUTP, closer to 10 = lower sensitivity, summary of Examples 1 to 3; for dUTP resistance: dUTP added to 0.5, 5, 50, 100, 200 μM, about 1.3 kb, 30 cycles, 1 U enzyme; for PCR products on addition of dUTP: some amount of dUTP added", "outline": "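Each enzyme (1 U) amplified about 1.3 kb from 10 ng human genomic DNA in KOD-Plus-Ver. 2 buffer with 1.5 mM MgSO4 and 0.2 mM dNTPs. dUTP was added at final 0.5, 5, 50, 100 and 200 μM, over 30 cycles of 98/65/68° C. Sensitivity is the dUTP level still yielding product on ethidium bromide-stained agarose gel.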"}}}
{"molecule": "KOD N210D/P115Δ: KOD N210D (exo(−)) mutant lacking P115", "values": [{"measurement": "Results of PCR in the presence of dUTP 481 bp", "setting": "482 bp of human β-globin", "result": "C"}, {"measurement": "Evaluation of dUTP resisitance on a 11-point scale", "setting": "[1]", "result": 0}, {"measurement": "dUTP resistance", "setting": "[1]", "result": 0, "unit": "µM"}]}
{"molecule": "KOD H147E/P115Δ: KOD H147E (exo(+)) mutant lacking P115", "values": [{"measurement": "Results of PCR in the presence of dUTP 481 bp", "setting": "482 bp of human β-globin", "result": "C"}, {"measurement": "Evaluation of dUTP resisitance on a 11-point scale", "setting": "[1]", "result": 0}, {"measurement": "dUTP resistance", "setting": "[1]", "result": 0, "unit": "µM"}]}
{"molecule": "KOD H147E/Y7A/V93K: KOD H147E (exo(+)) mutant with Y7A and V93K", "values": [{"measurement": "Results of PCR in the presence of dUTP 481 bp", "setting": "482 bp of human β-globin", "result": "A"}, {"measurement": "Evaluation of dUTP resisitance on a 11-point scale", "setting": "[1]", "result": 8}, {"measurement": "dUTP resistance", "setting": "[1]", "result": ">200", "unit": "µM"}]}
{"molecule": "KOD Y7A/P36H: modified KOD DNA polymerase with Y7A and P36H", "values": [{"measurement": "PCR amplification of 482 bp with dUTP", "setting": "482 bp of human β-globin", "result": "allowed for PCR amplification"}, {"measurement": "Results of PCR in the presence of dUTP 481 bp", "setting": "482 bp of human β-globin", "result": "A"}, {"measurement": "Evaluation of dUTP resisitance on a 11-point scale", "setting": "[1]", "result": 8}, {"measurement": "dUTP resistance", "setting": "[1]", "result": ">200", "unit": "µM"}]}
{"molecule": "KOD I142R/P36H: KOD I142R (exo(−)) mutant with P36H", "values": [{"measurement": "Results of PCR in the presence of dUTP 481 bp", "setting": "482 bp of human β-globin", "result": "A"}, {"measurement": "Evaluation of dUTP resisitance on a 11-point scale", "setting": "[1]", "result": 8}, {"measurement": "dUTP resistance", "setting": "[1]", "result": ">200", "unit": "µM"}]}
{"molecule": "KOD Y7A: modified DNA polymerase derived from Thermococcus kodakaraensis KOD1 with Y7A (protein, listed as Thermococcus kodakaraensis) MILDTDAITEDGKPVIRIFKKENGEFKIEYDRTFEPYFYALLKDDSAIEEVKKITAERHGTVVTVKRVEKVQKKFLGRPVEVWKLYFTHPQDVPAIRDKIREHPAVIDIYEYDIPFAKRYLIDKGLVPMEGDEELKMLAFDIETLYHEGEEFAEGPILMISYADEEGARVITWKNVDLPYVDVVSTEREMIKRFLRVVKEKDPDVLITYNGDNFDFAYLKKRCEKLGINFALGRDGSEPKIQRMGDRFAVEVKGRIHFDLYPVIRRTINLPTYTLEAVYEAVFGQPKEKVYAEEITTAWETGENLERVARYSMEDAKVTYELGKEFLPMEAQLSRLIGQSLWDVSRSSTGNLVEWFLLRKAYERNELAPNKPDEKELARRRQSYEGGYVKEPERGLWENIVYLDFRSLYPSIIITHNVSPDTLNREGCKEYDVAPQVGHRFCKDFPGFIPSLLGDLLEERQKIKKKMKATIDPIERKLLDYRQRAIKILANSYYGYYGYARARWYCKECAESVTAWGREYITMTIKEIEEKYGFKVIYSDTDGFFATIPGADAETVKKKAMEFLKYINAKLPGALELEYEGFYKRGFFVTKKKYAVIDEEGKITTRGLEIVRRDWSEIAKETQARVLEALLKDGDVEKAVRIVKEVTEKLSKYEVPPEKLVIHEQITRDLKDYKATGPHVAVAKRLAARGVKIRPGTVISYIVLKGSGRIGDRAIPFDEFDPTKHKYDAEYYIENQVLPAVERILRAFGYRKEDLRYQKTRQVGLSAWLKPKGT", "values": [{"measurement": "PCR amplification of 482 bp with dUTP", "setting": "482 bp of human β-globin", "result": "not PCR-amplified"}, {"measurement": "Results of PCR in the presence of dUTP 481 bp", "setting": "482 bp of human β-globin", "result": "C"}, {"measurement": "Evaluation of dUTP resisitance on a 11-point scale", "setting": "[1]", "result": 2}, {"measurement": "dUTP resistance", "setting": "[1]", "result": 0.5, "unit": "µM"}, {"measurement": "PCR products on addition of dUTP", "setting": "[1]", "result": "PCR products were confirmed"}]}
{"molecule": "KOD V93Q: modified KOD DNA polymerase with V93Q (protein, listed as Thermococcus kodakaraensis) MILDTDYITEDGKPVIRIFKKENGEFKIEYDRTFEPYFYALLKDDSAIEEVKKITAERHGTVVTVKRVEKVQKKFLGRPVEVWKLYFTHPQDQPAIRDKIREHPAVIDIYEYDIPFAKRYLIDKGLVPMEGDEELKMLAFDIETLYHEGEEFAEGPILMISYADEEGARVITWKNVDLPYVDVVSTEREMIKRFLRVVKEKDPDVLITYNGDNFDFAYLKKRCEKLGINFALGRDGSEPKIQRMGDRFAVEVKGRIHFDLYPVIRRTINLPTYTLEAVYEAVFGQPKEKVYAEEITTAWETGENLERVARYSMEDAKVTYELGKEFLPMEAQLSRLIGQSLWDVSRSSTGNLVEWFLLRKAYERNELAPNKPDEKELARRRQSYEGGYVKEPERGLWENIVYLDFRSLYPSIIITHNVSPDTLNREGCKEYDVAPQVGHRFCKDFPGFIPSLLGDLLEERQKIKKKMKATIDPIERKLLDYRQRAIKILANSYYGYYGYARARWYCKECAESVTAWGREYITMTIKEIEEKYGFKVIYSDTDGFFATIPGADAETVKKKAMEFLKYINAKLPGALELEYEGFYKRGFFVTKKKYAVIDEEGKITTRGLEIVRRDWSEIAKETQARVLEALLKDGDVEKAVRIVKEVTEKLSKYEVPPEKLVIHEQITRDLKDYKATGPHVAVAKRLAARGVKIRPGTVISYIVLKGSGRIGDRAIPFDEFDPTKHKYDAEYYIENQVLPAVERILRAFGYRKEDLRYQKTRQVGLSAWLKPKGT", "values": [{"measurement": "Results of PCR in the presence of dUTP 481 bp", "setting": "482 bp of human β-globin", "result": "A"}, {"measurement": "Evaluation of dUTP resisitance on a 11-point scale", "setting": "[1]", "result": 3}, {"measurement": "dUTP resistance", "setting": "[1]", "result": 100, "unit": "µM"}, {"measurement": "PCR products on addition of dUTP", "setting": "[1]", "result": "PCR products were confirmed"}]}
{"molecule": "KOD P36H: modified KOD DNA polymerase with P36H (protein, listed as Thermococcus kodakaraensis) MILDTDYITEDGKPVIRIFKKENGEFKIEYDRTFEHYFYALLKDDSAIEEVKKITAERHGTVVTVKRVEKVQKKFLGRPVEVWKLYFTHPQDVPAIRDKIREHPAVIDIYEYDIPFAKRYLIDKGLVPMEGDEELKMLAFDIETLYHEGEEFAEGPILMISYADEEGARVITWKNVDLPYVDVVSTEREMIKRFLRVVKEKDPDVLITYNGDNFDFAYLKKRCEKLGINFALGRDGSEPKIQRMGDRFAVEVKGRIHFDLYPVIRRTINLPTYTLEAVYEAVFGQPKEKVYAEEITTAWETGENLERVARYSMEDAKVTYELGKEFLPMEAQLSRLIGQSLWDVSRSSTGNLVEWFLLRKAYERNELAPNKPDEKELARRRQSYEGGYVKEPERGLWENIVYLDFRSLYPSIIITHNVSPDTLNREGCKEYDVAPQVGHRFCKDFPGFIPSLLGDLLEERQKIKKKMKATIDPIERKLLDYRQRAIKILANSYYGYYGYARARWYCKECAESVTAWGREYITMTIKEIEEKYGFKVIYSDTDGFFATIPGADAETVKKKAMEFLKYINAKLPGALELEYEGFYKRGFFVTKKKYAVIDEEGKITTRGLEIVRRDWSEIAKETQARVLEALLKDGDVEKAVRIVKEVTEKLSKYEVPPEKLVIHEQITRDLKDYKATGPHVAVAKRLAARGVKIRPGTVISYIVLKGSGRIGDRAIPFDEFDPTKHKYDAEYYIENQVLPAVERILRAFGYRKEDLRYQKTRQVGLSAWLKPKGT", "values": [{"measurement": "Results of PCR in the presence of dUTP 481 bp", "setting": "482 bp of human β-globin", "result": "A"}, {"measurement": "Evaluation of dUTP resisitance on a 11-point scale", "setting": "[1]", "result": 5}, {"measurement": "dUTP resistance", "setting": "[1]", "result": ">200", "unit": "µM"}, {"measurement": "PCR products on addition of dUTP", "setting": "[1]", "result": "PCR products were confirmed"}]}
{"molecule": "KOD P36R: modified KOD DNA polymerase with P36R (protein, listed as Thermococcus kodakaraensis) MILDTDYITEDGKPVIRIFKKENGEFKIEYDRTFERYFYALLKDDSAIEEVKKITAERHGTVVTVKRVEKVQKKFLGRPVEVWKLYFTHPQDVPAIRDKIREHPAVIDIYEYDIPFAKRYLIDKGLVPMEGDEELKMLAFDIETLYHEGEEFAEGPILMISYADEEGARVITWKNVDLPYVDVVSTEREMIKRFLRVVKEKDPDVLITYNGDNFDFAYLKKRCEKLGINFALGRDGSEPKIQRMGDRFAVEVKGRIHFDLYPVIRRTINLPTYTLEAVYEAVFGQPKEKVYAEEITTAWETGENLERVARYSMEDAKVTYELGKEFLPMEAQLSRLIGQSLWDVSRSSTGNLVEWFLLRKAYERNELAPNKPDEKELARRRQSYEGGYVKEPERGLWENIVYLDFRSLYPSIIITHNVSPDTLNREGCKEYDVAPQVGHRFCKDFPGFIPSLLGDLLEERQKIKKKMKATIDPIERKLLDYRQRAIKILANSYYGYYGYARARWYCKECAESVTAWGREYITMTIKEIEEKYGFKVIYSDTDGFFATIPGADAETVKKKAMEFLKYINAKLPGALELEYEGFYKRGFFVTKKKYAVIDEEGKITTRGLEIVRRDWSEIAKETQARVLEALLKDGDVEKAVRIVKEVTEKLSKYEVPPEKLVIHEQITRDLKDYKATGPHVAVAKRLAARGVKIRPGTVISYIVLKGSGRIGDRAIPFDEFDPTKHKYDAEYYIENQVLPAVERILRAFGYRKEDLRYQKTRQVGLSAWLKPKGT", "values": [{"measurement": "Results of PCR in the presence of dUTP 481 bp", "setting": "482 bp of human β-globin", "result": "A"}, {"measurement": "Evaluation of dUTP resisitance on a 11-point scale", "setting": "[1]", "result": 5}, {"measurement": "dUTP resistance", "setting": "[1]", "result": ">200", "unit": "µM"}, {"measurement": "PCR products on addition of dUTP", "setting": "[1]", "result": "PCR products were confirmed"}]}
